We go through 1 substance from patent US20110300138A1 (published 2011).

The assay deals with TSHR with Arg255 mutated to Ala, expressed in CHO cells (human) (UniProt P16473). In words: cell-based or functional assay.
Sequence of TSHR with Arg255 mutated to Ala, expressed in CHO cells (human) (P16473 other isoform, or with tags, fused parts or gaps, change not shown): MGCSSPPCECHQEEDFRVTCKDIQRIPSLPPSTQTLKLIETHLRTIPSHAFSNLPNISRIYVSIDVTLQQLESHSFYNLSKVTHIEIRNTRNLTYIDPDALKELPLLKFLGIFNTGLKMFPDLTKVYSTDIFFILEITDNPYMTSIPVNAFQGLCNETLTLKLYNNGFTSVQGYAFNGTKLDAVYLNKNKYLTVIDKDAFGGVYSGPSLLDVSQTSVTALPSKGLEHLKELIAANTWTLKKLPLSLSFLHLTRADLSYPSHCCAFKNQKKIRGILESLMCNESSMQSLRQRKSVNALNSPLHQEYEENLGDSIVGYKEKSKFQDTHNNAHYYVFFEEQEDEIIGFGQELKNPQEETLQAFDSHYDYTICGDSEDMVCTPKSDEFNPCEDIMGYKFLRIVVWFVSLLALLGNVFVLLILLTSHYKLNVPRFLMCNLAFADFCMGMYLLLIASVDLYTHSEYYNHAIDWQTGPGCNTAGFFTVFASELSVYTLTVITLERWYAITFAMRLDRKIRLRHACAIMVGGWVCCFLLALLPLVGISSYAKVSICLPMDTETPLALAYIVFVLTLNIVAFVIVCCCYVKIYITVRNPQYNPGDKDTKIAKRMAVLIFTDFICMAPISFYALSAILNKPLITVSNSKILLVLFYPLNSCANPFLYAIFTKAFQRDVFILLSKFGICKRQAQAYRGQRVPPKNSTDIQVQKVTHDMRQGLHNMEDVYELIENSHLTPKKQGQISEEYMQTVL

As to 5B3 IgG (antibody), the % inhibition of TSH stimulation; 5B3 10 µg/mL turned out to be 12%, the % inhibition of TSH stimulation; 5B3 100 µg/mL is 2%, the Cyclic AMP produced; 5B3 10 µg/mL + TSH 3 ng/mL was 56.4 pmol/mL and the Cyclic AMP produced; 5B3 100 µg/mL + TSH 3 ng/mL came to 62.5 pmol/mL. Moreover, the Mutated/wild type (%) of cyclic AMP produced; 5B3 10 µg/mL + TSH 3 ng/mL was 75% and the Mutated/wild type (%) of cyclic AMP produced; 5B3 100 µg/mL + TSH 3 ng/mL was found to be 92%.
